Laboratory results reported in publication PMC11410778.

Columns and labels:
[1] = biological target: plasmid-encoded OmpT (pOmpT or ArlC) of avian pathogenic Escherichia coli E058 (Escherichia coli (avian pathogenic strain E058))
[2] = biological target: pOmpT S267D (Escherichia coli (avian pathogenic strain E058))
[3] = biological target: cOmpT S276T (Escherichia coli (avian pathogenic strain E058)) (UniProt P09169)
[4] = biological target: pOmpT T276S (Escherichia coli (avian pathogenic strain E058))
[5] = biological target: pOmpT S267D/T276S (Escherichia coli (avian pathogenic strain E058))
[6] = biological target: cOmpT D267S/S276T (Escherichia coli (avian pathogenic strain E058)) (UniProt P09169)
[7] = biological target: chromosome-encoded OmpT (cOmpT) of avian pathogenic Escherichia coli E058 (Escherichia coli (avian pathogenic strain E058)) (UniProt P09169)
[8] = biological target: cOmpT D267S (Escherichia coli (avian pathogenic strain E058)) (UniProt P09169)

For “synthetic FRET substrate 2Abz-SLGRKIQI-K(Dnp)-NH2 (peptide)”, the Km of cleavage of the FRET substrate by whole E. coli BL21 expressing the protease (0–240 μM substrate, Michaelis–Menten fit) [1] was 0.0667 µM, the Km of cleavage of the FRET substrate by whole E. coli BL21 expressing the protease (0–240 μM substrate, Michaelis–Menten fit) [2] was 0.0281 µM and the Km of cleavage of the FRET substrate by whole E. coli BL21 expressing the protease (0–240 μM substrate, Michaelis–Menten fit) [3] was 0.0475 µM. The Km of cleavage of the FRET substrate by whole E. coli BL21 expressing the protease (0–240 μM substrate, Michaelis–Menten fit) [4] was 0.0157 µM, the Km of cleavage of the FRET substrate by whole E. coli BL21 expressing the protease (0–240 μM substrate, Michaelis–Menten fit) [5] was 0.0215 µM and the Km of cleavage of the FRET substrate by whole E. coli BL21 expressing the protease (0–240 μM substrate, Michaelis–Menten fit) [6] was 0.0408 µM. It also gave a Km of cleavage of the FRET substrate by whole E. coli BL21 expressing the protease (0–240 μM substrate, Michaelis–Menten fit) [7] of 0.0107 µM and a Km of cleavage of the FRET substrate by whole E. coli BL21 expressing the protease (0–240 μM substrate, Michaelis–Menten fit) [8] of 0.0167 µM.
